These results are taken from patent publication US6512102.

GSK3 (huGSK3myc), P49841, sequence (P49841 whole entry, looked up): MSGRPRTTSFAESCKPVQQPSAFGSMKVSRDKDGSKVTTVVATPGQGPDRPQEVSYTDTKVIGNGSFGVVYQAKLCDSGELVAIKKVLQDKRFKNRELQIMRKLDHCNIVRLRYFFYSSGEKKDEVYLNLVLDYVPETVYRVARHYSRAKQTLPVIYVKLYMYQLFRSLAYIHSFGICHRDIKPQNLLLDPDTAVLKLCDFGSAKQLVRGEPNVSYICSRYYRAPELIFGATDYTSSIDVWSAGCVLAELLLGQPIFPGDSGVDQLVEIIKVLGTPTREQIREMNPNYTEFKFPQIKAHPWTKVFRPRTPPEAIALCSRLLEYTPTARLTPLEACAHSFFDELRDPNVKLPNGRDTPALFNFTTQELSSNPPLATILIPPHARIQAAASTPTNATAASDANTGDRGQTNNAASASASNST
β-catenin, sequence (P35222 2-781): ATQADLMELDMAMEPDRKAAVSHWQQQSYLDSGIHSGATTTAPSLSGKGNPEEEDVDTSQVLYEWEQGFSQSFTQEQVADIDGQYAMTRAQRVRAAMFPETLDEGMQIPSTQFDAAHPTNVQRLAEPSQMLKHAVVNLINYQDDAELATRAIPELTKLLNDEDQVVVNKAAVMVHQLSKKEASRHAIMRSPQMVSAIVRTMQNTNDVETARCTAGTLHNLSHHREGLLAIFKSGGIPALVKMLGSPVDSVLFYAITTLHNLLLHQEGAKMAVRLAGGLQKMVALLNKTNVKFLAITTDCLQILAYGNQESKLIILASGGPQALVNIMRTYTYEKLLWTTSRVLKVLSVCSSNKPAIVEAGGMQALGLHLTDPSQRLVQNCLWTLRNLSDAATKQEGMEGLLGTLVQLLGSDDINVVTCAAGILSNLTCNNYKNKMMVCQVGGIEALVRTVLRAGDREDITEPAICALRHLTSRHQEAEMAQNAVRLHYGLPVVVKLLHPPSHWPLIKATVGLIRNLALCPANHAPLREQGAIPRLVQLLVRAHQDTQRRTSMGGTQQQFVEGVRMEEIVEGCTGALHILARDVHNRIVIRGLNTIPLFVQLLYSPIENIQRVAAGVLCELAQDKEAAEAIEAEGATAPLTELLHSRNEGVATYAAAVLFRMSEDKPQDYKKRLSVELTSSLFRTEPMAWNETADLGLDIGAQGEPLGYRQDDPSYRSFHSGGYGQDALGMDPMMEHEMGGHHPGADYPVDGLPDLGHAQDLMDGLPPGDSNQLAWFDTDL

B1: mouse casein kinase I epsilon, HA-tagged (CKIε-HA) (protein)
chain: MELRVGNKYRLGRKIGSGSFGDIYLGANIASGEEVAIKLECVKTKHPQLHIESKFYKMMQGGVGIPSIKWCGAEGDYNVMVMELLGPSLEDLFNFCSRKFSLKTVLLLADQMISRIEYIHSKNFIHRDVKPDNFLMGLGKKGNLVYIIDFGLAKKYRDARTHQHIPYRENKNLTGTARYASINTHLGIEQSRRDDLESLGYVLMYFNLGSLPWQGLKAATKRQKYERISEKKMSTPIEVLCKGYPSEFSTYLNFCRSLRFDDKPDYSYLRQLFRNLFHRQGFSYDYVFDWNMLKFGAARNPEDVDRERREHEREERMGQLRGSATRALPPGPPTGATANRLRSAAEPVASTPASRIQQTGNTSPRAISRADRERKVSMRLHRGAPANVSSSDLTGRQEVSRLAASQTSVPFDHLGK
Consider B1, for which the phosphorylation entry in the data set with Axin is “CKIε phosphorylates Axin”. For the same protein, the “in vitro kinase assay (phosphorylation of GSK3)” value with GSK3 (huGSK3myc), P49841 was “either purified CKIε protein or immunoprecipitated CKIε phosphorylated purified GSK3 protein as well as immunoprecipitated GSK3 protein”. The in vitro phosphorylation result with β-catenin is reported as “CKIε phosphorylates β-catenin in vitro”.

B2: C-terminally truncated CKIε (protein)
chain: MELRVGNKYRLGRKIGSGSFGDIYLGANIASGEEVAIKLECVKTKHPQLHIESKFYKMMQGGVGIPSIKWCGAEGDYNVMVMELLGPSLEDLFNFCSRKFSLKTVLLLADQMISRIEYIHSKNFIHRDVKPDNFLMGLGKKGNLVYIIDFGLAKKYRDARTHQHIPYRENKNLTGTARYASINTHLGIEQSRRDDLESLGYVLMYFNLGSLPWQGLKAATKRQKYERISEKKMSTPIEVLCKGYPSEFSTYLNFCRSLRFDDKPDYSYLRQLFRNLFHRQGFSYDYVFDWNMLKFGAARNPED
Consider B2, for which the “in vitro kinase assay (phosphorylation of GSK3)” value with GSK3 (huGSK3myc), P49841 is “A truncated mutant, CKIε, where the C-terminus was deleted had intact kinase activity. It was immunoprecipitated using anti-HA antibody and mixed with Immunoprecipitated GSK3”.
